From the supplement of paper PMC7877785
± gives the uncertainty stated by the source.

Experiment: self-splicing fitness, log relative to wild type (ln ratio); higher = more splicing; Tetrahymena group I intron in knt gene, E. coli kanamycin selection, DiMSum; sequences stand for … in CUCUCU…GGAGGGAAAAGUUAUCAGGCAUGCACCUGGUAGCUAGUCUUUAAACCAAUAGAUUGCAUCGGUUUAAAAGGCAAGACCGUCAAAUUGCGGGAAAGGGGUCAACAGCCGUUCAGUACCAAGUCUCAGGGGAAACUUUGAGAUGGCCUUGCAAAGGGUAUGGUAAUAAGCUGACGGACAUGGUCCUAACCACGCAGCCAAGUCCUAAGUCAACAGAUCUUCUGUUGAUAUGGAUGCAGUUCACAGACUAAAUGUCGGUCGGGGAAGAUGUAUUCUUCUCAUAAGAUAUAGUCGGACCUCUCCUUAAUGGGAGCUAGCGGAUGAAGUGAUGCAACACUGGAGCCGCUGGGAACUAAUUUGUAUGCGAAAGUAUAUUGAUUAGUUUUGGAGUACUCGUGGUCG
Outline: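 Six replicate transformations of E. coli BL21(DE3) with a pET-22b(+) library were grown overnight at 37°C or 30°C. The library randomised all eight P1ex-region intron nucleotides, the intron lying in the knt kanamycin-resistance gene, and plates were LB agar with or without 25 μg/mL kanamycin plus 100 μg/mL carbenicillin, 50 μM IPTG and 0.2% rhamnose. Pooled colonies were amplicon-sequenced on an Illumina HiSeq 2500, and fitness is the DiMSum error-weighted combination of wild-type-normalised replicate fold changes, kanamycin versus none.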

AAAAAGCAAUAUUACGUUUG
self-splicing fitness (ln) (30 °C): -2.65 ± 0.097 | self-splicing fitness (ln) (37 °C): -2.01 ± 0.12

GAGGAGCAAUAUUACGGACC
self-splicing fitness (ln) (37 °C): -0.0508 ± 0.35

CCUCAGCAAUAUUACGCCCA
self-splicing fitness (ln) (30 °C): -3.18 ± 0.22 | self-splicing fitness (ln) (37 °C): -3.5 ± 0.39

UGGCAGCAAUAUUACGCAGA
self-splicing fitness (ln) (30 °C): -1.21 ± 0.14 | self-splicing fitness (ln) (37 °C): -0.916 ± 0.12

CCUGAGCAAUAUUACGCUGU
self-splicing fitness (ln) (30 °C): -4.99 ± 0.46 | self-splicing fitness (ln) (37 °C): -2.85 ± 0.23

GCACAGCAAUAUUACGCACU
self-splicing fitness (ln) (30 °C): -0.263 ± 0.06 | self-splicing fitness (ln) (37 °C): 0.324 ± 0.077

ACUCAGCAAUAUUACGUCAA
self-splicing fitness (ln) (30 °C): -2.56 ± 0.1 | self-splicing fitness (ln) (37 °C): -1.78 ± 0.14

CUUGAGCAAUAUUACGCAGC
self-splicing fitness (ln) (30 °C): -2.02 ± 0.3 | self-splicing fitness (ln) (37 °C): -0.712 ± 0.28

CACUAGCAAUAUUACGCCGU
self-splicing fitness (ln) (30 °C): -1.95 ± 0.35 | self-splicing fitness (ln) (37 °C): -1.18 ± 0.35

UAAAAGCAAUAUUACGACGA
self-splicing fitness (ln) (30 °C): -0.526 ± 0.087 | self-splicing fitness (ln) (37 °C): -0.201 ± 0.086

AUUAAGCAAUAUUACGUCAU
self-splicing fitness (ln) (30 °C): -1.51 ± 0.1 | self-splicing fitness (ln) (37 °C): -0.717 ± 0.12

CCCUAGCAAUAUUACGAUUA
self-splicing fitness (ln) (30 °C): -1.88 ± 0.44 | self-splicing fitness (ln) (37 °C): -1.33 ± 0.34

CCUUAGCAAUAUUACGUGAU
self-splicing fitness (ln) (30 °C): -3.66 ± 0.2 | self-splicing fitness (ln) (37 °C): -2 ± 0.24

GUCCAGCAAUAUUACGACUU
self-splicing fitness (ln) (30 °C): -1.65 ± 0.078 | self-splicing fitness (ln) (37 °C): -0.203 ± 0.085

CCAUAGCAAUAUUACGACCG
self-splicing fitness (ln) (30 °C): -0.0743 ± 0.15 | self-splicing fitness (ln) (37 °C): -0.0737 ± 0.22

GUGCAGCAAUAUUACGUAAA
self-splicing fitness (ln) (30 °C): -0.491 ± 0.084 | self-splicing fitness (ln) (37 °C): -1.05 ± 0.11

CGGCAGCAAUAUUACGUGCC
self-splicing fitness (ln) (30 °C): -2.66 ± 0.28

GGGCAGCAAUAUUACGAGUC
self-splicing fitness (ln) (30 °C): -1.84 ± 0.21 | self-splicing fitness (ln) (37 °C): -1.81 ± 0.28

UCCAAGCAAUAUUACGGGUU
self-splicing fitness (ln) (30 °C): -3.89 ± 0.14 | self-splicing fitness (ln) (37 °C): -1.75 ± 0.097

CGGAAGCAAUAUUACGACUA
self-splicing fitness (ln) (30 °C): -0.269 ± 0.1 | self-splicing fitness (ln) (37 °C): 0.239 ± 0.1

AAAUAGCAAUAUUACGCUUG
self-splicing fitness (ln) (30 °C): -1.77 ± 0.087 | self-splicing fitness (ln) (37 °C): -0.8 ± 0.12

AUCAAGCAAUAUUACGACUC
self-splicing fitness (ln) (30 °C): -0.467 ± 0.1 | self-splicing fitness (ln) (37 °C): -0.0986 ± 0.14

GCAUAGCAAUAUUACGAUCU
self-splicing fitness (ln) (30 °C): -0.849 ± 0.075 | self-splicing fitness (ln) (37 °C): -0.178 ± 0.081

CCAUAGCAAUAUUACGUGGG
self-splicing fitness (ln) (30 °C): -4.18 ± 0.16 | self-splicing fitness (ln) (37 °C): -2.96 ± 0.15

GUAAAGCAAUAUUACGUUUA
self-splicing fitness (ln) (30 °C): -1.08 ± 0.077 | self-splicing fitness (ln) (37 °C): -0.69 ± 0.11

GCGAAGCAAUAUUACGCGUC
self-splicing fitness (ln) (37 °C): -1.65 ± 0.17

AGUCAGCAAUAUUACGGCUC
self-splicing fitness (ln) (30 °C): -3.84 ± 0.43 | self-splicing fitness (ln) (37 °C): -1.54 ± 0.45

CGAUAGCAAUAUUACGAAUU
self-splicing fitness (ln) (30 °C): -4.06 ± 0.3 | self-splicing fitness (ln) (37 °C): -2.41 ± 0.21

CUGGAGCAAUAUUACGGUCU
self-splicing fitness (ln) (30 °C): -4.34 ± 0.32 | self-splicing fitness (ln) (37 °C): -2.38 ± 0.29

UGUUAGCAAUAUUACGGCGA
self-splicing fitness (ln) (30 °C): 0.174 ± 0.14 | self-splicing fitness (ln) (37 °C): -0.431 ± 0.15

ACGCAGCAAUAUUACGACCU
self-splicing fitness (ln) (30 °C): 0.0699 ± 0.061 | self-splicing fitness (ln) (37 °C): 0.401 ± 0.073

CAGAAGCAAUAUUACGUAUU
self-splicing fitness (ln) (30 °C): -3.79 ± 0.23 | self-splicing fitness (ln) (37 °C): -2.28 ± 0.15

GUUUAGCAAUAUUACGCUCG
self-splicing fitness (ln) (30 °C): -0.147 ± 0.15 | self-splicing fitness (ln) (37 °C): 0.0286 ± 0.21

UUCAAGCAAUAUUACGGCAU
self-splicing fitness (ln) (30 °C): -1.71 ± 0.065 | self-splicing fitness (ln) (37 °C): -0.546 ± 0.075

UUUGAGCAAUAUUACGGGGG
self-splicing fitness (ln) (30 °C): -1.96 ± 0.38

UGCUAGCAAUAUUACGGGUU
self-splicing fitness (ln) (30 °C): -2.39 ± 0.14 | self-splicing fitness (ln) (37 °C): -1.33 ± 0.14

UCUAAGCAAUAUUACGAGGG
self-splicing fitness (ln) (30 °C): -3.29 ± 0.47 | self-splicing fitness (ln) (37 °C): -2.61 ± 0.27

UGUAAGCAAUAUUACGGCAA
self-splicing fitness (ln) (30 °C): -0.056 ± 0.1 | self-splicing fitness (ln) (37 °C): 0.0443 ± 0.12

CGAUAGCAAUAUUACGCAGA
self-splicing fitness (ln) (30 °C): -3.24 ± 0.21 | self-splicing fitness (ln) (37 °C): -1.75 ± 0.13
